test system: Escherichia coli TOP10; test: shrunken log2 fold change of peptide-encoding DNA abundance (4.5 h post-induction vs induction); higher = less antimicrobial activity (less host growth inhibition); settings: time post-induction: 4.5 h; library: site-saturation at positions 5, 18, 19, 20
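Further: peptides expressed intracellularly from a pBAD plasmid library in pooled LB shake-flask culture, induced with 0.3% L-arabinose, DNA abundance read by NGS, three biological replicates, DESeq2 with apeglm shrinkage.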

Point of comparison: RRIRFRPPRLPRPRPRPRQGPRP, “shrunken log2 fold change” value 0.259. Against it:
- RRIRNRPPRLPRPRPRPNCGPRP — lower, 0.0526
- RRIRSRPPRLPRPRPRPTETPRP — within 0.2 log units, 0.0721
- RRIRWRPPRLPRPRPRPSCVPRP — within 0.2 log units, 0.121
- RRIRQRPPRLPRPRPRPMELPRP — lower, -0.109
- RRIRNRPPRLPRPRPRPNELPRP — within 0.2 log units, 0.106
- RRIRFRPPRLPRPRPRPKCDPRP — lower, -0.136
- RRIRKRPPRLPRPRPRPNKLPRP — lower, -0.0293
- RRIRERPPRLPRPRPRPNRTPRP — lower, -1.51
- RRIRERPPRLPRPRPRPSKGPRP — lower, -0.35
- RRIRWRPPRLPRPRPRPCFVPRP — lower, -0.144
- RRIRVRPPRLPRPRPRPANFPRP — within 0.2 log units, 0.0908
- RRIRDRPPRLPRPRPRPFGLPRP — lower, -0.259
- RRIRHRPPRLPRPRPRPPYRPRP — lower, -0.399
- RRIRKRPPRLPRPRPRPQFRPRP — lower, 0.0319
- RRIRARPPRLPRPRPRPGDIPRP — lower, -0.0868
- RRIRQRPPRLPRPRPRPFSSPRP — lower, -0.0951
- RRIRTRPPRLPRPRPRPWPVPRP — lower, -0.105
- RRIRKRPPRLPRPRPRPAYLPRP — within 0.2 log units, 0.105
- RRIRVRPPRLPRPRPRPRPDPRP — within 0.2 log units, 0.216
- RRIRRRPPRLPRPRPRPDGSPRP — within 0.2 log units, 0.0601
- RRIRGRPPRLPRPRPRPPVMPRP — within 0.2 log units, 0.333
- RRIRIRPPRLPRPRPRPVTPPRP — lower, -0.0315
- RRIRCRPPRLPRPRPRPIQEPRP — lower, 0.0221
- RRIRFRPPRLPRPRPRPVKNPRP — lower, -0.0401
- RRIRARPPRLPRPRPRPPSCPRP — higher, 0.503
- RRIRVRPPRLPRPRPRPNYTPRP — lower, -0.533
- RRIRPRPPRLPRPRPRPGFHPRP — lower, -0.0164
- RRIRCRPPRLPRPRPRPCWEPRP — lower, -0.0142
- RRIRPRPPRLPRPRPRPNLEPRP — lower, -0.0337
- RRIRYRPPRLPRPRPRPRGMPRP — lower, -0.019
- RRIRNRPPRLPRPRPRPCHDPRP — lower, -0.0458
- RRIRSRPPRLPRPRPRPADCPRP — within 0.2 log units, 0.0938
- RRIRQRPPRLPRPRPRPAIMPRP — lower, -0.159
- RRIRGRPPRLPRPRPRPQLKPRP — within 0.2 log units, 0.404
- RRIRWRPPRLPRPRPRPWQLPRP — lower, -0.18
- RRIRYRPPRLPRPRPRPMGAPRP — lower, -0.207
- RRIRDRPPRLPRPRPRPMMIPRP — within 0.2 log units, 0.0818
- RRIRTRPPRLPRPRPRPWLLPRP — lower, -0.186
- RRIRHRPPRLPRPRPRPKQTPRP — within 0.2 log units, 0.179
- RRIRARPPRLPRPRPRPSIVPRP — lower, -0.103
- RRIRRRPPRLPRPRPRPGDPPRP — higher, 0.593
- RRIRERPPRLPRPRPRPQGPPRP — lower, 0.0515
- RRIRGRPPRLPRPRPRPVMIPRP — within 0.2 log units, 0.157
- RRIRGRPPRLPRPRPRPALIPRP — higher, 0.737
- RRIRMRPPRLPRPRPRPSTLPRP — lower, -0.239
- RRIRERPPRLPRPRPRPAADPRP — within 0.2 log units, 0.127
- RRIRARPPRLPRPRPRPKFAPRP — within 0.2 log units, 0.306
- RRIRVRPPRLPRPRPRPLPKPRP — within 0.2 log units, 0.361
- RRIRWRPPRLPRPRPRPFFEPRP — lower, -0.0187
- RRIRRRPPRLPRPRPRPGSIPRP — lower, -0.0979
- RRIRFRPPRLPRPRPRPGSPPRP — within 0.2 log units, 0.206
- RRIRQRPPRLPRPRPRPQHNPRP — lower, -0.786
- RRIRCRPPRLPRPRPRPMIMPRP — lower, -0.854
- RRIRWRPPRLPRPRPRPHGFPRP — within 0.2 log units, 0.407
- RRIRPRPPRLPRPRPRPNIIPRP — lower, -0.407
- RRIRWRPPRLPRPRPRPQHTPRP — within 0.2 log units, 0.0837
- RRIRCRPPRLPRPRPRPDHLPRP — lower, -0.0314
- RRIRMRPPRLPRPRPRPVKYPRP — within 0.2 log units, 0.0631
- RRIRNRPPRLPRPRPRPQTPPRP — lower, -0.00271
- RRIRERPPRLPRPRPRPWSAPRP — lower, -0.00234
- RRIRARPPRLPRPRPRPLTKPRP — within 0.2 log units, 0.339
- RRIRSRPPRLPRPRPRPMKTPRP — lower, 0.0178
- RRIRTRPPRLPRPRPRPNQRPRP — within 0.2 log units, 0.181
- RRIRDRPPRLPRPRPRPVIPPRP — higher, 0.471
- RRIRERPPRLPRPRPRPLEWPRP — lower, -0.0018
- RRIRHRPPRLPRPRPRPIDRPRP — lower, -0.263
- RRIRERPPRLPRPRPRPFHSPRP — lower, -0.256
- RRIRQRPPRLPRPRPRPFVHPRP — lower, -0.0465
- RRIRFRPPRLPRPRPRPWTKPRP — lower, 0.0163
- RRIRPRPPRLPRPRPRPHGIPRP — within 0.2 log units, 0.0828
- RRIRCRPPRLPRPRPRPINSPRP — lower, -0.389
- RRIRQRPPRLPRPRPRPAMAPRP — lower, -0.134
- RRIRMRPPRLPRPRPRPGLSPRP — higher, 0.795
- RRIRVRPPRLPRPRPRPLQDPRP — lower, -0.104
- RRIRYRPPRLPRPRPRPNFTPRP — lower, -0.348
- RRIRRRPPRLPRPRPRPHQPPRP — higher, 0.557
- RRIRWRPPRLPRPRPRPWELPRP — lower, -0.0481
- RRIRDRPPRLPRPRPRPRDWPRP — higher, 0.619
- RRIRIRPPRLPRPRPRPAMPPRP — within 0.2 log units, 0.0692
- RRIRWRPPRLPRPRPRPNRLPRP — lower, -0.0743
- RRIRHRPPRLPRPRPRPSKMPRP — lower, -0.858
- RRIRARPPRLPRPRPRPCKFPRP — lower, -0.138
- RRIRFRPPRLPRPRPRPPYLPRP — lower, -0.465
- RRIRCRPPRLPRPRPRPDLDPRP — within 0.2 log units, 0.0676
- RRIRDRPPRLPRPRPRPYTTPRP — lower, -0.556
- RRIRQRPPRLPRPRPRPAWMPRP — lower, 0.0361
- RRIRTRPPRLPRPRPRPVYDPRP — lower, -0.156
- RRIRTRPPRLPRPRPRPEHFPRP — lower, -0.115
- RRIRPRPPRLPRPRPRPPIGPRP — within 0.2 log units, 0.287
- RRIRYRPPRLPRPRPRPSTQPRP — lower, -0.641
- RRIRWRPPRLPRPRPRPHGHPRP — lower, -0.0213
- RRIRQRPPRLPRPRPRPMQSPRP — within 0.2 log units, 0.108
- RRIRIRPPRLPRPRPRPRHKPRP — lower, -0.704
- RRIRIRPPRLPRPRPRPDVWPRP — lower, -0.109
- RRIRARPPRLPRPRPRPGVPPRP — higher, 0.727
- RRIRHRPPRLPRPRPRPWISPRP — lower, -0.0102
- RRIRSRPPRLPRPRPRPDCCPRP — within 0.2 log units, 0.227
- RRIRRRPPRLPRPRPRPNGTPRP — within 0.2 log units, 0.219
- RRIRARPPRLPRPRPRPYSNPRP — lower, -0.781
- RRIRSRPPRLPRPRPRPQEVPRP — lower, -0.0423
- RRIRWRPPRLPRPRPRPQAVPRP — within 0.2 log units, 0.232
- RRIRERPPRLPRPRPRPALMPRP — within 0.2 log units, 0.129
- RRIRVRPPRLPRPRPRPKYIPRP — lower, -0.821
- RRIRSRPPRLPRPRPRPKYKPRP — lower, -0.422
- RRIRMRPPRLPRPRPRPMDMPRP — higher, 0.482
- RRIRIRPPRLPRPRPRPLHCPRP — lower, -1.13
- RRIRVRPPRLPRPRPRPETLPRP — lower, -0.223
- RRIRSRPPRLPRPRPRPTDWPRP — within 0.2 log units, 0.354
- RRIRNRPPRLPRPRPRPWIPPRP — lower, -0.536
- RRIRARPPRLPRPRPRPMLKPRP — within 0.2 log units, 0.216
- RRIRTRPPRLPRPRPRPMQMPRP — within 0.2 log units, 0.39
- RRIRQRPPRLPRPRPRPDAEPRP — within 0.2 log units, 0.105
- RRIRPRPPRLPRPRPRPRARPRP — higher, 0.58
- RRIRARPPRLPRPRPRPDKFPRP — lower, -0.19
- RRIRDRPPRLPRPRPRPKWWPRP — lower, 0.00489
- RRIRRRPPRLPRPRPRPMWEPRP — lower, 0.00178
- RRIRVRPPRLPRPRPRPPLKPRP — within 0.2 log units, 0.343
- RRIRDRPPRLPRPRPRPEPWPRP — within 0.2 log units, 0.32
- RRIRNRPPRLPRPRPRPVMYPRP — lower, -0.128
- RRIRSRPPRLPRPRPRPHCLPRP — lower, -0.0826
- RRIRGRPPRLPRPRPRPIDCPRP — lower, -0.00142
- RRIRNRPPRLPRPRPRPSRWPRP — within 0.2 log units, 0.417
- RRIRERPPRLPRPRPRPKEMPRP — lower, -0.192
- RRIRFRPPRLPRPRPRPDQGPRP — lower, -0.167
- RRIRVRPPRLPRPRPRPPDWPRP — higher, 0.46
- RRIRLRPPRLPRPRPRPSAQPRP — lower, 0.0425
- RRIRLRPPRLPRPRPRPWQHPRP — lower, -0.319
- RRIRPRPPRLPRPRPRPKDPPRP — within 0.2 log units, 0.165
- RRIRERPPRLPRPRPRPQTQPRP — lower, -0.0049
- RRIRTRPPRLPRPRPRPTAFPRP — within 0.2 log units, 0.13
- RRIRHRPPRLPRPRPRPELYPRP — lower, -0.215
- RRIRLRPPRLPRPRPRPCMHPRP — lower, -0.0286
- RRIRSRPPRLPRPRPRPCPLPRP — lower, -0.823
- RRIRSRPPRLPRPRPRPLCYPRP — lower, -0.535
- RRIRSRPPRLPRPRPRPYFDPRP — lower, -0.597
- RRIRLRPPRLPRPRPRPFKEPRP — lower, -0.169
- RRIRYRPPRLPRPRPRPSERPRP — lower, -0.417
- RRIRSRPPRLPRPRPRPWTLPRP — lower, -0.0934
- RRIRCRPPRLPRPRPRPKPTPRP — within 0.2 log units, 0.128
- RRIRGRPPRLPRPRPRPNCVPRP — higher, 0.543
- RRIRDRPPRLPRPRPRPNKLPRP — lower, -0.277
- RRIRARPPRLPRPRPRPRERPRP — within 0.2 log units, 0.334
- RRIRNRPPRLPRPRPRPYMNPRP — lower, -0.207
- RRIRSRPPRLPRPRPRPYTPPRP — lower, -1.07
- RRIRIRPPRLPRPRPRPMGQPRP — lower, -0.077
- RRIRMRPPRLPRPRPRPMDIPRP — higher, 0.468
- RRIRLRPPRLPRPRPRPTSQPRP — lower, -0.145
- RRIRMRPPRLPRPRPRPSRYPRP — lower, -0.173
- RRIRFRPPRLPRPRPRPGDIPRP — lower, 0.0113

— the supplement of paper PMC9112550, “Optimization of the antimicrobial peptide Bac7 by deep mutational scanning” (BMC Biology, 2022)
